# B1: Sex-determining transformer protein 2 (Caenorhabditis elegans), P34709 (parent)
# chain: MKLKYNKLLVSVVIVTFVTFGLLLAECFGKSIDYQEKSIFPSFVSQGFFETRTNNEEYIIEKIAQTQENGVDMRSTLHFTQHGYLLNNISNLKIKFRQKTYTLNDVCFKPHITIFQQSSSSDQNEYPHYIQRLLLEMQRLSPCLIVTPLNCFYDIYRIHGEISNWNKNTDFLNRRLRNSYIEAIGENDERPYVKSNYGPSLIKSWADHMFDLPSKSFTNSTKDALFQKIKLWLLSIEPRQKTCAASIHSCDTPLDSEHYFNICTDMQSVDNFAEKKTKFKLEDVDEEFAMNLDCVDDQEQFIEWMQELEIRKMYSHVTEKPDYPNVVNQTCDKIFHDLNSTGIEFFDGSRSFSSTKSQFDTMQTEIVLLTPEMLLSAMQHSDFVNGFESIWTIEKAEELIHEFRLALKEETEKFKENRMSKMIRVTSRVLDNTVTTKLQSFSEKQTIHFVVNVHSLIVILFTIFVWSGAPLRSAFMFFVRDALTCLLFCFVCSTDGVIVLDTELIKYIIVLTLANLYFTTRSSFCTERLSRCIQREKRFPINSNFASLITVDTMTDSRQIQYFLSTVTKYQAAQDSYSNELFERFPKNWGCTSILIFPIVFVYWYFIDSNFDKICVSVLPSFCLAAGEELFAKNMFWKEREAMQAKQRLENEEQAESITGSSLEKLFAGNKPVSNTDKANIVKKSSIIRNQKPCLQDLSPGTYDVSNFMKYPHQASRIFREKIIGLYLRILKLRTLGVILCIPAILLIVISIGLLFIPVKRETLHTDSKQDDIFIEFEIFNFSTNWKIVNQNLKQFSEDIESIGTLYTISNWQKSFERFEQETNKNASAEWNILFKWINDEPINSAVTLFSEKSSGNQTIANPFKFRLRYGFDAKNETTVIEIVQKIDELLSKCSKNLSPKAVGVLYEHYHRIAVVWNLFAFNQLTTAGIFIILLSIITFIFAITPTIKATFLFSLLVVGTQIEVAALVHLFSLDHHQIYTNLALFAGFLAAWDPFCALLRYRRRILYKSETRRTPELASKRRVLLPIVATADIAQFFVLLITAFSILAIICSIVPELNIFFVPTVILIVIQIVAVFNSIIVSIATKQMFESEVRHYLHRDLRGSTTAVRVYNLVQKQRLASSLDEPQVELDEFSIKRSSPPCRYYAPPPKYSCKKRSRSSDEDEDSDPNQPGPSNRRSPKTGNKRVRGNGDNTELYIPNRYELIVSGKSVGGNTSAAWNGPGSTLEQNMNALEECFELGVDEYDFDEHDGDEGCELVQDMLDRERNLMNKRSTAQRRESRNIEKMKKSQENLDKEKSEEKISESKKNQDDSIESPNLPGTPANLPVDEPLPPVGRLYIVEHVLPEEYRRDPLTEPPSMEDCIRAHSDPNLPPHPRADQYPASFTRPMVEYCEDIYWTHRTGQLPPGLQVPRRPYDYYHITERTPPPEDLNWVPPAESPPIPIPQQAFDLLEERRRNHREQQDEAREGDLSDPEV
# partner: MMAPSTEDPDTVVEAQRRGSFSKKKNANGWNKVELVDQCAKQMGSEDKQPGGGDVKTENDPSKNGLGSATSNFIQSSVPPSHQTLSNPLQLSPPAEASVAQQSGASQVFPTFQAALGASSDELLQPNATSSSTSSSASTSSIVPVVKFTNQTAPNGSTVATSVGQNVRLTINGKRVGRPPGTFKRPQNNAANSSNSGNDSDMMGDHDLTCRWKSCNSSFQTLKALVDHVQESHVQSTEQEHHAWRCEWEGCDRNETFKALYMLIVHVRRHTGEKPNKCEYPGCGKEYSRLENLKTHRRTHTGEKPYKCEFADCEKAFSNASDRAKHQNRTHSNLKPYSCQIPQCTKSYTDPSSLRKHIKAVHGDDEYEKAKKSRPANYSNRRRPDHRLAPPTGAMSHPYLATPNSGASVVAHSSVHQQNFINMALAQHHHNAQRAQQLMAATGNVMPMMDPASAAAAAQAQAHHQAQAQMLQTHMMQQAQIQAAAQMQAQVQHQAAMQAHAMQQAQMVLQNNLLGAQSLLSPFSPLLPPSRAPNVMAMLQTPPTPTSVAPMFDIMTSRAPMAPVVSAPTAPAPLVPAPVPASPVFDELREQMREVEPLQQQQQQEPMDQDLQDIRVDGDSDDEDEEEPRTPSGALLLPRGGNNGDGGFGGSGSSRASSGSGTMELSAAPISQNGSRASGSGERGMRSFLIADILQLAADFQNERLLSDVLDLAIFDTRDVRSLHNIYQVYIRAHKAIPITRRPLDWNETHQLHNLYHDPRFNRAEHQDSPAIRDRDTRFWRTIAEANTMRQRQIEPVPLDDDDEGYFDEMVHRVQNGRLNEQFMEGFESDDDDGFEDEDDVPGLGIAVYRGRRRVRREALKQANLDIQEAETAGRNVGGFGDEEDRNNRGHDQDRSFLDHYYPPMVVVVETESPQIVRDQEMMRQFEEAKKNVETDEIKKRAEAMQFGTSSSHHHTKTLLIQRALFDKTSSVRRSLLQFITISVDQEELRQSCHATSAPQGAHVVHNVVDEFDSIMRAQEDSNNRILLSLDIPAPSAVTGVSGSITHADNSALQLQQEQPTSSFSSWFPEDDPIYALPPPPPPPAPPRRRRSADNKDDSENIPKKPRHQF
# B2: Sex-determining transformer protein 1 (Caenorhabditis elegans), P34708 (parent)
# chain: B1 partner
# partner: B1 chain
# Variants of: B1
# Conditions: with tra1_caeel tra-1, P34708
row,Variant,effect of a mutation on the interaction
1,C1392Y;E1393K;R1400Q,decreasing interaction

# Variants of: B2
# Conditions: with tra2_caeel tra-2, P34709
row,Variant,effect of a mutation on the interaction
1,L723F,decreasing interaction
